Reference: paper PMC9268357 (Science (New York, N.y.), 2021)

B1: S2P6 monoclonal antibody (antibody, V domains shown)
VH: EVQLVQSGAEVKKPGASVKVSCKASGYTFTSQYMHWVRQAPGQGLEWIGIINPSGVHTSYAQKFQGRVTLTRDTSTSTLYMELSSLRSEDTAVYYCARGSPKGAFDYWGQGTLVTVSS
VL: not shown
notes: also called S2P6 mAb; S2P6 IgG; copies: 2 + 2
B2: S2P6 Fab fragment (Fab, V domains shown)
VH: B1 VH
VL: not shown

Assays:
[1] = biological target: T1, prefusion-stabilized SARS-CoV S ectodomain trimer (SARS-CoV, isolate , UniProt P59594, stabilised); experiment: cell-based or functional assay
[2] = biological target: T2, prefusion-stabilized MERS-CoV S ectodomain trimer (MERS-CoV, isolate not shown; stand-in …, UniProt K9N5Q8, stabilised); experiment: cell-based or functional assay
[3] = biological target: T1, prefusion-stabilized SARS-CoV S …; experiment: SPR; S2P6 Fab fragment and S glycoproteins (fig. S1, G and H); details: both partners purified
[4] = biological target: T2, prefusion-stabilized MERS-CoV S …; experiment: as above; details: both partners purified

Binder | neutralization of VSV pseudotyped with SARS-CoV S, IC50 [1] [µg/mL] | neutralization of VSV pseudotyped with MERS-CoV S, IC50 [2] [µg/mL] | Kd [3] [nM] | Kd [4] [nM]
B1 | 2.4 | 17.1 |  | 
B2 |  |  | 7 | 12
